Experimental findings from patent publication US20230235013A1 (MABSOLVE, published 2023) are described below.

The target of experiment [1] is T1, Human C1q (Sigma Cat. No. 20476), HRP-labelled (human, UniProt P02745 23-245; P02746 28-253; P02747 29-245).
T1 construct: Coupled to horse-radish peroxidase with Lightning-Link kit; also called HRP-labelled C1q
Put plainly: ELISA, antibody coated, HRP-C1q; Expt 2, buffer alone 0.051.

Experiment [2] addresses T1, Human C1q (Sigma Cat. No. 20476), …. In words: ELISA, antibody coated, HRP-C1q; Expt 1, buffer alone 0.053.
Experiment [3] addresses T2, human FcγRIIA (R131, Sino Biological Cat. No. 10374-H08H) (human, UniProt P12318 34-218).
T2 construct: bought; also called human FcγRIIa R131 allele; FcγRII allele R131
T2 sequence (looked up): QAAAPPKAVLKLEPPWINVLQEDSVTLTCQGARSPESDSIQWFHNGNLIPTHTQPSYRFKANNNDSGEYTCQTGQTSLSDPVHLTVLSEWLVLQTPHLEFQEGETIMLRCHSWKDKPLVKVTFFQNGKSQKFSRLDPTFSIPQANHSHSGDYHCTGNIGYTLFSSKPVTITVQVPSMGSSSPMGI
Put plainly: SPR, captured His-receptor.

Experiment [4] concerns the target T3, Histidine-tagged recombinant human FcγRI (CD64) (human, UniProt P12314 16-288).
T3 construct: bought; also called Sino Biological Cat. No. 12056-H08H
In words: SPR, captured His-receptor.

For experiment [5], the target named is T4, human FcγRIIIB (NA2 allotype, Sino Biological Cat. No. 11046-H08H) (human, UniProt O75015 17-200).
T4 construct: bought; also called human FcγRIIIb NA2 allele
In words: SPR, captured His-receptor.

In experiment [6] the target is T3, Histidine-tagged recombinant human …. Put plainly: SPR, culture supernatant, captured His-FcγRI.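 Also: biacore T200 SPR at 25 °C, anti-His capture, supernatants of HEK293 cells expressing IgG1 Fc variants injected 1 min, reference-subtracted response read 55 s after injection start.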

Changes are numbered by the printed parent chain. Names may count otherwise.

B1: anti-CD52 (alemtuzumab) human IgG1 wild-type reference (antibody)
heavy: not shown
light: not shown
notes: also called 4-1; copies: 2 + 2
B1: the results for the “Mean Absorbance” value in experiment [1] and in experiment [2] were 0.649 absorbance (450 nm) and 1.42 absorbance (450 nm), respectively.

B2: anti-CD52 (alemtuzumab) human IgG1 L234T/L235Q/G236R (antibody)
heavy: QVQLQESGPGLVRPSQTLSLTCTVSGFTFTDFYMNWVRQPPGRGLEWIGFIRDKAKGYTTEYNPSVKGRVTMLVDTSKNQFSLRLSSVTAADTAVYYCAREGHTAAPFDYWGQGSLVTVSSASTKGPSVFPLAPSSKSTSGGTAALGCLVKDYFPEPVTVSWNSGALTSGVHTFPAVLQSSGLYSLSSVVTVPSSSLGTQTYICNVNHKPSNTKVDKKVEPKSCDKTHTCPPCPAPETQRGPSVFLFPPKPKDTLMISRTPEVTCVVVDVSHEDPEVKFNWYVDGVEVHNAKTKPREEQYNSTYRVVSVLTVLHQDWLNGKEYKCKVSNKALPAPIEKTISKAKGQPREPQVYTLPPSRDELTKNQVSLTCLVKGFYPSDIAVEWESNGQPENNYKTTPPVLDSDGSFFLYSKLTVDKSRWQQGNVFSCSVMHEALHNHYTQKSLSLSPGK
light: not shown
notes: EU numbering; also called 4-60; copies: 2 + 2
For B2, the “Mean Absorbance” value in experiment [1] is 0.052 absorbance (450 nm); in experiment [2] it was 0.056 absorbance (450 nm).

B3: anti-CD52 (alemtuzumab) human IgG1 L234S/L235V/G236R (antibody)
heavy: B2 heavy with T238S, Q239V
light: not shown
notes: EU numbering; also called 4-53; copies: 2 + 2
As to B3, the “Mean Absorbance” value in experiment [1] is 0.059 absorbance (450 nm); in experiment [2] it was 0.057 absorbance (450 nm).

B4: anti-CD52 (alemtuzumab) human IgG1 L234G/L235S/G236R (antibody)
heavy: B2 heavy with T238G, Q239S
light: not shown
notes: EU numbering; also called 4-19; copies: 2 + 2
B4: the “Mean Absorbance” value is 0.056 absorbance (450 nm) in experiment [1] and 0.053 absorbance (450 nm) in experiment [2].

B5: anti-CD52 (alemtuzumab) human IgG1 L234S/L235T/G236R (antibody)
heavy: B2 heavy with T238S, Q239T
light: not shown
notes: EU numbering; also called 4-52; copies: 2 + 2
For the molecule B5, the “Mean Absorbance” value in experiment [1] is 0.053 absorbance (450 nm); in experiment [2], 0.052 absorbance (450 nm).

B6: anti-CD52 (alemtuzumab) human IgG1 N297Q (aglycosyl) (antibody)
heavy: not shown
light: not shown
notes: EU numbering; also called 4-67; copies: 2 + 2
As to B6, the “Mean Absorbance” value in experiment [1] is 0.044 absorbance (450 nm); in experiment [2] it was 0.051 absorbance (450 nm).

B7: anti-CD20 human IgG1 L234G/L235S/G236R (antibody)
heavy: QVQLQQPGAELVKPGASVKMSCKASGYTFTSYNMHWVKQTPGRGLEWIGAIYPGNGDTSYNQKFKGKATLTADKSSSTAYMQLSSLTSEDSAVYYCARSTYYGGDWYFNVWGAGTTVTVSSASTKGPSVFPLAPSSKSTSGGTAALGCLVKDYFPEPVTVSWNSGALTSGVHTFPAVLQSSGLYSLSSVVTVPSSSLGTQTYICNVNHKPSNTKVDKKVEPKSCDKTHTCPPCPAPEGSRGPSVFLFPPKPKDTLMISRTPEVTCVVVDVSHEDPEVKFNWYVDGVEVHNAKTKPREEQYNSTYRVVSVLTVLHQDWLNGKEYKCKVSNKALPAPIEKTISKAKGQPREPQVYTLPPSRDELTKNQVSLTCLVKGFYPSDIAVEWESNGQPENNYKTTPPVLDSDGSFFLYSKLTVDKSRWQQGNVFSCSVMHEALHNHYTQKSLSLSPGK
light: QIVLSQSPAILSASPGEKVTMTCRASSSVSYIHWFQQKPGSSPKPWIYATSNLASGVPVRFSGSGSGTSYSLTISRVEAEDAATYYCQQWTSNPPTFGGGTKLEIKRTVAAPSVFIFPPSDEQLKSGTASVVCLLNNFYPREAKVQWKVDNALQSGNSQESVTEQDSKDSTYSLSSTLTLSKADYEKHKVYACEVTHQGLSSPVTKSFNRGEC
notes: also called 1-59; 2-19; copies: 2 + 2
For the molecule B7, the binding result in experiment [3], in experiment [4] and in experiment [5] was “no binding (tested: 100 µg/mL)” throughout. In addition, the Mean binding response in experiment [6] is 21.8 RU.

B8: anti-CD20 human IgG1 L234T/L235T/G236R (antibody)
heavy: B7 heavy with G238T, S239T
light: B7 light
notes: also called 1-165; 2-63; copies: 2 + 2
On to B8, for which the binding result in experiment [3], in experiment [4] and in experiment [5] was “no binding (tested: 100 µg/mL)” each time.

B9: anti-CD20 human IgG1 L234S/L235T/G236R (antibody)
heavy: B7 heavy with G238S, S239T
light: B7 light
notes: also called 1-150; 2-52; copies: 2 + 2
B9: the binding result in experiment [3], in experiment [4] and in experiment [5] was “no binding (tested: 100 µg/mL)” each time. The Mean binding response in experiment [6] is 16.2 RU.

B10: anti-CD20 human IgG1 L234T/L235Q/G236R (antibody)
heavy: B7 heavy with G238T, S239Q
light: B7 light
notes: also called 2-60; copies: 2 + 2
B10: the binding result in experiment [3], in experiment [4] and in experiment [5] was “no binding (tested: 100 µg/mL)” in each case. In addition, in experiment [6], the Mean binding response turned out to be 17 RU.

B11: anti-CD3 (muromonab) human IgG1 wild-type reference (antibody)
heavy: not shown
light: QIVLTQSPAIMSASPGEKVTMTCSASSSVSYMNWYQQKSGTSPKRWIYDTSKLASGVPAHFRGSGSGTSYSLTISGMEAEDAATYYCQQWSSNPFTFGSGTKLEIKRTVAAPSVFIFPPSDEQLKSGTASVVCLLNNFYPREAKVQWKVDNALQSGNSQESVTEQDSKDSTYSLSSTLTLSKADYEKHKVYACEVTHQGLSSPVTKSFNRGEC
notes: also called 3-1; copies: 2 + 2
For B11, the “Mean Absorbance” value in experiment [1] was 0.432 absorbance (450 nm); in experiment [2] it was 0.769 absorbance (450 nm).

B12: anti-CD3 (muromonab) human IgG1 L234A/L235A/P329G (LALAPG reference) (antibody)
heavy: not shown
light: B11 light
notes: EU numbering; also called 3-66; copies: 2 + 2
With B12, the “Mean Absorbance” value in experiment [1] is 0.044 absorbance (450 nm); in experiment [2] it was 0.052 absorbance (450 nm).

B13: anti-CD3 (muromonab) human IgG1 L234T/L235Q/G236R (antibody)
heavy: not shown
light: B11 light
notes: EU numbering; also called 3-60; copies: 2 + 2
For the molecule B13, the “Mean Absorbance” value in experiment [1] was 0.045 absorbance (450 nm); in experiment [2], 0.047 absorbance (450 nm).

B14: anti-CD3 (muromonab) human IgG1 L234S/L235T/G236R (antibody)
heavy: not shown
light: B11 light
notes: EU numbering; also called 3-52; copies: 2 + 2
With B14, the “Mean Absorbance” value in experiment [1] was 0.046 absorbance (450 nm); in experiment [2] it was 0.048 absorbance (450 nm).

B15: anti-CD3 (muromonab) human IgG1 L234A/L235A (LALA) (antibody)
heavy: not shown
light: B11 light
notes: EU numbering; also called 3-65; copies: 2 + 2
Regarding B15, the “Mean Absorbance” value in experiment [1] was 0.051 absorbance (450 nm); in experiment [2] it was 0.053 absorbance (450 nm).

B16: anti-CD3 (muromonab) human IgG1 N297Q (aglycosyl) (antibody)
heavy: not shown
light: B11 light
notes: EU numbering; also called 3-67; copies: 2 + 2
As for B16, the entries for the “Mean Absorbance” value in experiment [1] and in experiment [2] were 0.051 absorbance (450 nm) and 0.052 absorbance (450 nm), respectively.

B17: anti-CD3 (muromonab) human IgG1 L234S/L235V/G236R (antibody)
heavy: not shown
light: B11 light
notes: EU numbering; also called 3-53; copies: 2 + 2
As to B17, the “Mean Absorbance” value in experiment [1] was 0.042 absorbance (450 nm); in experiment [2], 0.047 absorbance (450 nm).

B18: anti-CD3 (muromonab) human IgG1 L234G/L235S/G236R (antibody)
heavy: not shown
light: B11 light
notes: EU numbering; also called 3-19; copies: 2 + 2
Take B18: the “Mean Absorbance” value was 0.049 absorbance (450 nm) in experiment [1] and 0.052 absorbance (450 nm) in experiment [2].

B19: anti-CD3 (muromonab) human IgG1 L234T/L235T/G236R (antibody)
heavy: not shown
light: B11 light
notes: EU numbering; also called 3-63; copies: 2 + 2
B19: the figures for the “Mean Absorbance” value in experiment [1] and in experiment [2] were 0.048 absorbance (450 nm) and 0.047 absorbance (450 nm), respectively.
